Assay results from paper PMC3907796, “The C-Terminal Region of G72 Increases D-Amino Acid Oxidase Activity” (International Journal of Molecular Sciences, 2013).
No end group written: not given here. *: point of attachment. Biotin = O=C1N[C@H]2[C@H](CS[C@H]2CCCCC(=O)*)N1

T1: BD-G72 (full-length G72 N-terminally tagged with the binding domain) (UniProt P59103 1-153)
T1 construct: probably pGBKT7; The BD fusion was detected with anti-c-Myc; also called full-length BD-G72; G72 isoform 1; source: yeast two-hybrid fusion, S. cerevisiae AH109; not shown: from the vector pGBDT7), N-terminal, kept
T1 sequence (looked up): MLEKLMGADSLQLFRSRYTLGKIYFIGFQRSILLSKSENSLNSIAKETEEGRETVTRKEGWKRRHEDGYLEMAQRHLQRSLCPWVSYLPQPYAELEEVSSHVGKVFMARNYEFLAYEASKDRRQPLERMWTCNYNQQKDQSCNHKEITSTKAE

B1: DAO-6H (recombinant D-amino acid oxidase with C-terminal (His)6) (enzyme)
chain: not shown
notes: D-amino acid oxidase (DAO), cDNA amplified with DAO-F'-NdeI/DAO-R'-XhoI (the primers of the full-length 1044 bp cDNA, GI:30524341), in pET23a(+); Detected in the pull-down with anti-His-tag; also called recombinant DAO; source: E. coli BL21(DE3)pLysS, purified (HisTrap FF); not shown: His6, C-terminal, kept
B2: N-terminally biotinylated G72(138-153) peptide (peptide, UniProt P59103 138-153, looked up)
peptide: Biotin-KDQSCNHKEITSTKAE
B3: AD-DAO (D-amino acid oxidase N-terminally tagged with the activation domain) (enzyme)
chain: not shown
notes: D-amino acid oxidase (DAO), full-length cDNA of 1044 bp, GI:30524341; The AD fusion was detected with anti-HA; source: yeast two-hybrid fusion, S. cerevisiae AH109; not shown: from the vector pGADT7), N-terminal, kept
B4: N-terminally biotinylated G72(123-153) peptide (peptide, UniProt P59103 123-153, looked up)
peptide: Biotin-RQPLERMWTCNYNQQKDQSCNHKEITSTKAE
modifications: cysteine pairing not given here

How the values were obtained:
[1] = biological target: B2; experiment: pull-down; 10 μg biotinylated G72 peptide on streptavidin Sepharose beads, 10 μg DAO-6H in phosphate-buffered saline, 4 °C, 3 h, ten washes; DAO detected by Western blotting (anti-His-tag); beads alone as control; conditions: both partners purified
[2] = biological target: B4; experiment: as above; conditions: both partners purified
[3] = biological target: B1; experiment: cell-based or functional assay
[4] = biological target: T1, BD-G72 (full-length G72 N-terminally …); experiment: two-hybrid; β-galactosidase activity of AH109 transformants grown in SD/-2 broth at 30 °C, normalised to yeast with the AD and BD tags alone; conditions: partners not purified

Binder: B1
- relative amount of DAO pulled down (against beads alone) [1]: 2.17 fold
- relative amount of DAO pulled down (against beads alone) [2]: 1.38 fold

Binder: B2
- initial velocity (V0) of DAO activity (400 nM DAO-6H, 40 mM D-alanine, 25 °C) with 0, 1, 3, 10 μM G72(138-153); V0 at 10 μM, fold of DAO alone in parentheses [3]: 2.94 mol hydrogen peroxide produced/min/g DAO

Binder: B3
- relative interaction strength by β-galactosidase activity (AD tag with BD tag = 1) [4]: 5.7 fold

Binder: B4
- initial velocity (V0) of DAO activity (400 nM DAO-6H, 40 mM D-alanine, 25 °C) with 0, 1, 3, 10 μM G72(123-153); V0 at 10 μM, fold of DAO alone in parentheses [3]: 2.71 mol hydrogen peroxide produced/min/g DAO
